Assay results published in IntAct's records for PubMed 29039417.

B1: BBSome complex member BBS4 (Homo sapiens), Q96RK4 (parent)
chain: MAEERVATRTQFPVSTESQKPRQKKAPEFPILEKQNWLIHLHYIRKDYEACKAVIKEQLQETQGLCEYAIYVQALIFRLEGNIQESLELFQTCAVLSPQSADNLKQVARSLFLLGKHKAAIEVYNEAAKLNQKDWEISHNLGVCYIYLKQFNKAQDQLHNALNLNRHDLTYIMLGKIHLLEGDLDKAIEVYKKAVEFSPENTELLTTLGLLYLQLGIYQKAFEHLGNALTYDPTNYKAILAAGSMMQTHGDFDVALTKYRVVACAVPESPPLWNNIGMCFFGKKKYVAAISCLKRANYLAPFDWKILYNLGLVHLTMQQYASAFHFLSAAINFQPKMGELYMLLAVALTNLEDIENAKRAYAEAVHLDKCNPLVNLNYAVLLYNQGEKKNALAQYQEMEKKVSLLKDNSSLEFDSEMVEMAQKLGAALQVGEALVWTKPVKDPKSKHQTTSTSKPASFQQPLGSNQALGQAMSSAAAYRTLPSGAGGTSQFTKPPSLPLEPEPAVESSPTETSEQIREK
partner: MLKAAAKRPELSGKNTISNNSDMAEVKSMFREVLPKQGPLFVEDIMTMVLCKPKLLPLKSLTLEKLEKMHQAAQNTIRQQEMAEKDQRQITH

Variants of: B1
Settings: with bbip1_human BBIP1, A8MTZ0

Effect of a mutation on the interaction, with no effect:
MAEERVATRTQFPVSTESQKPRQKKAPEFPILEKQNWLIHLHYIRKDYEACKAVIKEQLQETQGLCEYAIYVQALIFRLEGNIQESLELFQTCAVLSPQSADNLKQVARSLFLLGKHKAAIEVYNEAAKLNQKDWEISHNLGVCYIYLKQFNKAQDQLHNALNLNRHDLTYIMLGKIHLLEGDLDKAIEVYKKAVEFSPENTELLTTLGLLYLQLGIYQKAFEHLGNALTYDPTNYKAILAAGSMMQTHGDFDVALTKYRVVACAVPESPPLWNNIGMCFFGKKKYVAAISCLKRANYLAPFDWKILYNLGLVHLTMQQYASAFHFLSAAINFQPKMGELYMLLAVALTNLEDIENAKRAYAEAVHLDKCNPLVNLNYAVLLYNQGEKKNALAQYQEMEKKVSLLKDNSSLEFDSEMVEMAQKLGAALQVGEALVWTKPVKDPKSKHQTTSTSKPASFQQPLGSNQALGQAMSSAAAYRTLPSGAGGTSQFTKPPSLPLEPEPAVESSPTETSEQIAEK [R517A]
MAEERVATRTQFPVSTESQKPRQKKAPEFPILEKQNWLIHLHYIRKDYEACKAVIKEQLQETQGLCEYAIYVQALIFRLEGNIQESLELFQTCAVLSPQSADNLKQVARSLFLLGKHKAAIEVYNEAAKLNQKDWEISHNLGVCYIYLKQFNKAQDQLHNALNLNRHDLTYIMLGKIHLLEGDLDKAIEVYKKAVEFSPENTELLTTLGLLYLQLGIYQKAFEHLGNALTYDPTNYKAILAAGSMMQTHGDFDVALTKYRVVACAVPESPPLWNNIGMCFFGKKKYVAAISCLKRANYLAPFDWKILYNLGLVHLTMQQYASAFHFLSAAINFQPKMGELYMLLAVALTNLEDIENAKRAYAEAVHLDKCNPLVNLNYAVLLYNQGEKKNALAQYQEMEKKVSLLKDNSSLEFDSEMVEMAQKLGAALQVGEALVWTKPVKDPKSKHQTTSTSKPASFQQPLGSNQALGQAMSSAAAYRTLPSGAGGTSQFTKPPSLPLEPEPAVESSPTETSEQIEEK [R517E]
MAEERVATRTQFPVSTESQKPRQKKAPEFPILEKQNWLIHLHYIRKDYEACKAVIKEQLQETQGLCEYAIYVQALIFRLEGNIQESLELFQTCAVLSPQSADNLKQVARSLFLLGKHKAAIEVYNEAAKLNQKDWEISHNLGVCYIYLKQFNKAQDQLHNALNLNRHDLTYIMLGKIHLLEGDLDKAIEVYKKAVEFSPENTELLTTLGLLYLQLGIYQKAFEHLGNALTYDPTNYKAILAAGSMMQTHGDFDVALTKYRVVACAVPESPPLWNNIGMCFFGKKKYVAAISCLKRANYLAPFDWKILYNLGLVHLTMQQYASAFHFLSAAINFQPKMGELYMLLAVALTNLEDIENAKRAYAEAVHLDKCNPLVNLNYAVLLYNQGEKKNALAQYQEMEKKVSLLKDNSSLEFDSEMVEMAQKLGAALQVGEALVWTKPVKDPKSKHQTTSTSKPASFQQPLGSNQALGQAMSSAAAYRTLPSGAGGTSQFTKPPSLPLEPEPAVESSPTETSEQIKEK [R517K]
MAEERVATRTQFPVSTESQKPRQKKAPEFPILEKQNWLIHLHYIRKDYEACKAVIKEQLQETQGLCEYAIYVQALIFRLEGNIQESLELFQTCAVLSPQSADNLKQVARSLFLLGKHKAAIEVYNEAAKLNQKDWEISHNLGVCYIYLKQFNKAQDQLHNALNLNRHDLTYIMLGKIHLLEGDLDKAIEVYKKAVEFSPENTELLTTLGLLYLQLGIYQKAFEHLGNALTYDPTNYKAILAAGSMMQTHGDFDVALTKYRVVACAVPESPPLWNNIGMCFFGKKKYVAAISCLKRANYLAPFDWKILYNLGLVHLTMQQYASAFHFLSAAINFQPKMGELYMLLAVALTNLEDIENAKRAYAEAVHLDKCNPLVNLNYAVLLYNQGEKKNALAQYQEMEKKVSLLKDNSSLEFDSEMVEMAQKLGAALQVGEALVWTKPVKDPKSKHQTTSTSKPASFQQPLGSNQALGQAMSSAAAYRTLPSGAGGTSQFTKPPSLPLEPEPAVESSPTETSEKIREK [Q515K]
MAEERVATRTQFPVSTESQKPRQKKAPEFPILEKQNWLIHLHYIRKDYEACKAVIKEQLQETQGLCEYAIYVQALIFRLEGNIQESLELFQTCAVLSPQSADNLKQVARSLFLLGKHKAAIEVYNEAAKLNQKDWEISHNLGVCYIYLKQFNKAQDQLHNALNLNRHDLTYIMLGKIHLLEGDLDKAIEVYKKAVEFSPENTELLTTLGLLYLQLGIYQKAFEHLGNALTYDPTNYKAILAAGSMMQTHGDFDVALTKYRVVACAVPESPPLWNNIGMCFFGKKKYVAAISCLKRANYLAPFDWKILYNLGLVHLTMQQYASAFHFLSAAINFQPKMGELYMLLAVALTNLEDIENAKRAYAEAVHLDKCNPLVNLNYAVLLYNQGEKKNALAQYQEMEKKVSLLKDNSSLEFDSEMVEMAQKLGAALQVGEALVWTKPVKDPKSKHQTTSTSKPASFQQPLGSNQALGQAMSSAAAYRTLPSGAGGTSQFTKPPSLPLEPEPAVESSPTETSEEIREK [Q515E]
MAEERVATRTQFPVSTESQKPRQKKAPEFPILEKQNWLIHLHYIRKDYEACKAVIKEQLQETQGLCEYAIYVQALIFRLEGNIQESLELFQTCAVLSPQSADNLKQVARSLFLLGKHKAAIEVYNEAAKLNQKDWEISHNLGVCYIYLKQFNKAQDQLHNALNLNRHDLTYIMLGKIHLLEGDLDKAIEVYKKAVEFSPENTELLTTLGLLYLQLGIYQKAFEHLGNALTYDPTNYKAILAAGSMMQTHGDFDVALTKYRVVACAVPESPPLWNNIGMCFFGKKKYVAAISCLKRANYLAPFDWKILYNLGLVHLTMQQYASAFHFLSAAINFQPKMGELYMLLAVALTNLEDIENAKRAYAEAVHLDKCNPLVNLNYAVLLYNQGEKKNALAQYQEMEKKVSLLKDNSSLEFDSEMVEMAQKLGAALQVGEALVWTKPVKDPKSKHQTTSTSKPASFQQPLGSNQALGQAMSSAAAYRTLPSGAGGTSQFTKPPSLPLEPEPAVESSPTETSEAIREK [Q515A]
MAEERVATRTQFPVSTESQKPRQKKAPEFPILEKQNWLIHLHYIRKDYEACKAVIKEQLQETQGLCEYAIYVQALIFRLEGNIQESLELFQTCAVLSPQSADNLKQVARSLFLLGKHKAAIEVYNEAAKLNQKDWEISHNLGVCYIYLKQFNKAQDQLHNALNLNRHDLTYIMLGKIHLLEGDLDKAIEVYKKAVEFSPENTELLTTLGLLYLQLGIYQKAFEHLGNALTYDPTNYKAILAAGSMMQTHGDFDVALTKYRVVACAVPESPPLWNNIGMCFFGKKKYVAAISCLKRANYLAPFDWKILYNLGLVHLTMQQYASAFHFLSAAINFQPKMGELYMLLAVALTNLEDIENAKRAYAEAVHLDKCNPLVNLNYAVLLYNQGEKKNALAQYQEMEKKVSLLKDNSSLEFDSEMVEMAQKLGAALQVGEALVWTKPVKDPKSKHQTTSTSKPASFQQPLGSNQALGQAMSSAAAYRTLPSGAGGTSQFTKPPSLPLEPEPAVESSPTETSEQIRAK [E518A]
MAEERVATRTQFPVSTESQKPRQKKAPEFPILEKQNWLIHLHYIRKDYEACKAVIKEQLQETQGLCEYAIYVQALIFRLEGNIQESLELFQTCAVLSPQSADNLKQVARSLFLLGKHKAAIEVYNEAAKLNQKDWEISHNLGVCYIYLKQFNKAQDQLHNALNLNRHDLTYIMLGKIHLLEGDLDKAIEVYKKAVEFSPENTELLTTLGLLYLQLGIYQKAFEHLGNALTYDPTNYKAILAAGSMMQTHGDFDVALTKYRVVACAVPESPPLWNNIGMCFFGKKKYVAAISCLKRANYLAPFDWKILYNLGLVHLTMQQYASAFHFLSAAINFQPKMGELYMLLAVALTNLEDIENAKRAYAEAVHLDKCNPLVNLNYAVLLYNQGEKKNALAQYQEMEKKVSLLKDNSSLEFDSEMVEMAQKLGAALQVGEALVWTKPVKDPKSKHQTTSTSKPASFQQPLGSNQALGQAMSSAAAYRTLPSGAGGTSQFTKPPSLPLEPEPAVESSPTETSEQIRKK [E518K]
MAEERVATRTQFPVSTESQKPRQKKAPEFPILEKQNWLIHLHYIRKDYEACKAVIKEQLQETQGLCEYAIYVQALIFRLEGNIQESLELFQTCAVLSPQSADNLKQVARSLFLLGKHKAAIEVYNEAAKLNQKDWEISHNLGVCYIYLKQFNKAQDQLHNALNLNRHDLTYIMLGKIHLLEGDLDKAIEVYKKAVEFSPENTELLTTLGLLYLQLGIYQKAFEHLGNALTYDPTNYKAILAAGSMMQTHGDFDVALTKYRVVACAVPESPPLWNNIGMCFFGKKKYVAAISCLKRANYLAPFDWKILYNLGLVHLTMQQYASAFHFLSAAINFQPKMGELYMLLAVALTNLEDIENAKRAYAEAVHLDKCNPLVNLNYAVLLYNQGEKKNALAQYQEMEKKVSLLKDNSSLEFDSEMVEMAQKLGAALQVGEALVWTKPVKDPKSKHQTTSTSKPASFQQPLGSNQALGQAMSSAAAYRTLPSGAGGTSQFTKPPSLPLEPEPAVESSPTETSEQIREA [K519A]
MAEERVATRTQFPVSTESQKPRQKKAPEFPILEKQNWLIHLHYIRKDYEACKAVIKEQLQETQGLCEYAIYVQALIFRLEGNIQESLELFQTCAVLSPQSADNLKQVARSLFLLGKHKAAIEVYNEAAKLNQKDWEISHNLGVCYIYLKQFNKAQDQLHNALNLNRHDLTYIMLGKIHLLEGDLDKAIEVYKKAVEFSPENTELLTTLGLLYLQLGIYQKAFEHLGNALTYDPTNYKAILAAGSMMQTHGDFDVALTKYRVVACAVPESPPLWNNIGMCFFGKKKYVAAISCLKRANYLAPFDWKILYNLGLVHLTMQQYASAFHFLSAAINFQPKMGELYMLLAVALTNLEDIENAKRAYAEAVHLDKCNPLVNLNYAVLLYNQGEKKNALAQYQEMEKKVSLLKDNSSLEFDSEMVEMAQKLGAALQVGEALVWTKPVKDPKSKHQTTSTSKPASFQQPLGSNQALGQAMSSAAAYRTLPSGAGGTSQFTKPPSLPLEPEPAVESSPTETSEQIREE [K519E]
MAEERVATRTQFPVSTESQKPRQKKAPEFPILEKQNWLIHLHYIRKDYEACKAVIKEQLQETQGLCEYAIYVQALIFRLEGNIQESLELFQTCAVLSPQSADNLKQVARSLFLLGKHKAAIEVYNEAAKLNQKDWEISHNLGVCYIYLKQFNKAQDQLHNALNLNRHDLTYIMLGKIHLLEGDLDKAIEVYKKAVEFSPENTELLTTLGLLYLQLGIYQKAFEHLGNALTYDPTNYKAILAAGSMMQTHGDFDVALTKYRVVACAVPESPPLWNNIGMCFFGKKKYVAAISCLKRANYLAPFDWKILYNLGLVHLTMQQYASAFHFLSAAINFQPKMGELYMLLAVALTNLEDIENAKRAYAEAVHLDKCNPLVNLNYAVLLYNQGEKKNALAQYQEMEKKVSLLKDNSSLEFDSEMVEMAQKLGAALQVGEALVWTKPVKDPKSKHQTTSTSKPASFQQPLGSNQALGQAMSSAAAYRTLPSGAGGTSQFTKPPSLPLEPEPAVESSPTETSEQKREK [I516K]
MAEERVATRTQFPVSTESQKPRQKKAPEFPILEKQNWLIHLHYIRKDYEACKAVIKEQLQETQGLCEYAIYVQALIFRLEGNIQESLELFQTCAVLSPQSADNLKQVARSLFLLGKHKAAIEVYNEAAKLNQKDWEISHNLGVCYIYLKQFNKAQDQLHNALNLNRHDLTYIMLGKIHLLEGDLDKAIEVYKKAVEFSPENTELLTTLGLLYLQLGIYQKAFEHLGNALTYDPTNYKAILAAGSMMQTHGDFDVALTKYRVVACAVPESPPLWNNIGMCFFGKKKYVAAISCLKRANYLAPFDWKILYNLGLVHLTMQQYASAFHFLSAAINFQPKMGELYMLLAVALTNLEDIENAKRAYAEAVHLDKCNPLVNLNYAVLLYNQGEKKNALAQYQEMEKKVSLLKDNSSLEFDSEMVEMAQKLGAALQVGEALVWTKPVKDPKSKHQTTSTSKPASFQQPLGSNQALGQAMSSAAAYRTLPSGAGGTSQFTKPPSLPLEPEPAVESSPTETSEQAREK [I516A]
MAEERVATRTQFPVSTESQKPRQKKAPEFPILEKQNWLIHLHYIRKDYEACKAVIKEQLQETQGLCEYAIYVQALIFRLEGNIQESLELFQTCAVLSPQSADNLKQVARSLFLLGKHKAAIEVYNEAAKLNQKDWEISHNLGVCYIYLKQFNKAQDQLHNALNLNRHDLTYIMLGKIHLLEGDLDKAIEVYKKAVEFSPENTELLTTLGLLYLQLGIYQKAFEHLGNALTYDPTNYKAILAAGSMMQTHGDFDVALTKYRVVACAVPESPPLWNNIGMCFFGKKKYVAAISCLKRANYLAPFDWKILYNLGLVHLTMQQYASAFHFLSAAINFQPKMGELYMLLAVALTNLEDIENAKRAYAEAVHLDKCNPLVNLNYAVLLYNQGEKKNALAQYQEMEKKVSLLKDNSSLEFDSEMVEMAQKLGAALQVGEALVWTKPVKDPKSKHQTTSTSKPASFQQPLGSNQALGQAMSSAAAYRTLPSGAGGTSQFTKPPSLPLEPEPAVESSPTETSEQEREK [I516E]
